Target: interleukin-6 receptor (IL-6R) (human) (UniProt P08887)
Experiment: cell-based or functional assay

Sequence of interleukin-6 receptor (IL-6R) (human) (P08887 20-468 limits assumed): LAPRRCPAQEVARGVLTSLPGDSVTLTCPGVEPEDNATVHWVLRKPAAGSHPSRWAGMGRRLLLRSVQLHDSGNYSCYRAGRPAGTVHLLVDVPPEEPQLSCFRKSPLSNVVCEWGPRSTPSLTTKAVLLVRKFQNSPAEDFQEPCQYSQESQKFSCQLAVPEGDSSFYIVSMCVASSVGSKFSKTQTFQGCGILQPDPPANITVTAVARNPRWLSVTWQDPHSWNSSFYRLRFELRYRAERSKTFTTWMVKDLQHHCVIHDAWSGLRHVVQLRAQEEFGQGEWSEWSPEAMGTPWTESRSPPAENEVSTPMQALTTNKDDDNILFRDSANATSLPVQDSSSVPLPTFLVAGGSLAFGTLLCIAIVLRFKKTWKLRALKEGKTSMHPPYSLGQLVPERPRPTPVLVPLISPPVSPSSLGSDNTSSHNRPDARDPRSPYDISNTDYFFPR

median peak levels of serum IL-6 (day 3-5): 10 fold
Substance: tocilizumab (antibody)
